Results: publication PMC6018948

Assays:
ARR1 = molecular target: T1, ARR1 (UniProt Q940D0 1-690); test: competition
T1 sequence: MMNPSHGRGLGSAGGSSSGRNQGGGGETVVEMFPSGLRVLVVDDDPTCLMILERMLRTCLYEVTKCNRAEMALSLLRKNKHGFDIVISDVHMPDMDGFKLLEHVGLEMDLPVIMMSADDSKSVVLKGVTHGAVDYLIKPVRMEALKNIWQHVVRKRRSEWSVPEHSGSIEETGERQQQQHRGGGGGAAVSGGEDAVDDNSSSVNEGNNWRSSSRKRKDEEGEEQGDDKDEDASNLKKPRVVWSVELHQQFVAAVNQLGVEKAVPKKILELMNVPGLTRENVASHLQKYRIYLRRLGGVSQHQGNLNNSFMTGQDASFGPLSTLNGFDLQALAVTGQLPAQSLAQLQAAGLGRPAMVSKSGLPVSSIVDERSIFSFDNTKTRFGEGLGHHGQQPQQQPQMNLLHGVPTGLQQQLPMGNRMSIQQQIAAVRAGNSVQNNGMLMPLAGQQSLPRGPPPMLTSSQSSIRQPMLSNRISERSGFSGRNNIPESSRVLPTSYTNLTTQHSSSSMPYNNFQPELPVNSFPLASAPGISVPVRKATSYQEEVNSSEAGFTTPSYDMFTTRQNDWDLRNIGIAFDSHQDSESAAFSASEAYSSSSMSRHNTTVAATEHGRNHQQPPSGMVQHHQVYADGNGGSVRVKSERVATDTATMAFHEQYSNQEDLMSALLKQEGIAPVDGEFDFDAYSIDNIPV

ARR10 = molecular target: T2, ARR10 (UniProt O49397 1-552); test: competition
T2 sequence: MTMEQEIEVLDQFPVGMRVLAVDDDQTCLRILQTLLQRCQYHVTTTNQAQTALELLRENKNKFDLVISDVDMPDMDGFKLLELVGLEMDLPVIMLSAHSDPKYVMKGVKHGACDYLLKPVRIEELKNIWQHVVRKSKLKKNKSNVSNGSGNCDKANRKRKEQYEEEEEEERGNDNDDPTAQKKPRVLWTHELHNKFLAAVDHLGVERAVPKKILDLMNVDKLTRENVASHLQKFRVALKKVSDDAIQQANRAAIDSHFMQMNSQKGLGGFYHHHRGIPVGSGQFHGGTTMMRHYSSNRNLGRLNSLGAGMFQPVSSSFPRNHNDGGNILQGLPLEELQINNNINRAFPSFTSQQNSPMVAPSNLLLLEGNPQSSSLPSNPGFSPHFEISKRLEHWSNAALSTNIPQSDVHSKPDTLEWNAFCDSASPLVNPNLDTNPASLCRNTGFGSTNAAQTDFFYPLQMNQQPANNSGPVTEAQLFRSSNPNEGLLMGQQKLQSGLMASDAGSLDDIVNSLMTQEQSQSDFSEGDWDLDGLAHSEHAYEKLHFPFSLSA

B1: AG mutated competitor (dsDNA)
DNA 1: TTTAAAGCAATGGTTACAATTTTAATACTATCAAATGTCTATTGCTTTTA
DNA 2: TAAAAGCAATAGACATTTGATAGTATTAAAATTGTAACCATTGCTTTAAA
B1: no binding (ARR1); no binding (ARR10).
